Data taken from the Immune Epitope Database (IEDB).
Blank lines part the entries; values can stand above or below the sequence they belong to.

Tests used:
HLA-A*02:01 [1] = assay: IEDB peptide-MHC binding, purified MHC/competitive/fluorescence; ≥ and ≤ were set here for values at or beyond the usual limits of such assays; conditions: source organism: Zaire ebolavirus
HLA-A*03:01 [2] = assay: as above; conditions: source organism: Zaire ebolavirus
HLA-A*24:02 = assay: as above; conditions: source organism: Zaire ebolavirus
HLA-A*11:01 [3] = assay: as above; conditions: source organism: Zaire ebolavirus
HLA-A*02:01 [4] = assay: IEDB peptide-MHC binding, purified MHC/competitive/fluorescence; filed as Kd, often an IC50 or EC50 that approximates it; ≥ and ≤ were set here for values at or beyond the usual limits of such assays
HLA-A*24:03 [5] = assay: as above
HLA-A*02:12 [6] = assay: as above; conditions: source organism: Giardia intestinalis ATCC 50581
HLA-B*18:01 = assay: as above
HLA-B*46:01 = assay: as above
HLA-B*51:01 = assay: as above
HLA-A*03:01 [7] = assay: as above; conditions: source organism: Giardia intestinalis ATCC 50581
HLA-A*26:01 [8] = assay: as above
HLA-B*15:01 [9] = assay: as above
HLA-B*57:01 = assay: as above
HLA-B*39:01 = assay: as above
HLA-B*27:03 = assay: as above
HLA-A*02:01 [10] = assay: IEDB peptide-MHC binding, purified MHC/direct/fluorescence; filed as Kd, often an IC50 or EC50 that approximates it; ≥ and ≤ were set here for values at or beyond the usual limits of such assays; conditions: source organism: Brucella abortus
HLA-A*24:03 [11] = assay: as above
HLA-A*31:01 [12] = assay: as above; conditions: source organism: Brucella abortus
HLA-B*58:01 = assay: as above; conditions: source organism: Brucella abortus
HLA-B*44:02 = assay: as above; conditions: source organism: Brucella abortus
HLA-A*69:01 [13] = assay: as above; conditions: source organism: Brucella abortus
HLA-B*27:05 = assay: as above; conditions: source organism: Brucella abortus
HLA-A*03:01 [14] = assay: as above
HLA-B*40:01 = assay: as above; conditions: source organism: Brucella abortus
HLA-B*07:02 [15] = assay: as above
HLA-A*11:01 [16] = assay: as above; conditions: source organism: Brucella abortus
HLA-B*08:01 [17] = assay: as above
HLA-A*26:01 [18] = assay: as above
HLA-B*15:01 [19] = assay: as above; conditions: source organism: Brucella melitensis
HLA-B*35:01 = assay: as above; conditions: source organism: Brucella melitensis
HLA-A*02:19 = assay: as above; conditions: source organism: Zaire ebolavirus
HLA-A*02:12 [20] = assay: as above; conditions: source organism: Zaire ebolavirus
HLA-A*02:16 = assay: as above; conditions: source organism: Zaire ebolavirus
HLA-A*02:11 = assay: as above; conditions: source organism: Zaire ebolavirus
HLA-A*02:03 = assay: as above; conditions: source organism: Zaire ebolavirus
HLA-A*29:02 = assay: as above; conditions: source organism: Zaire ebolavirus
HLA-A*68:02 = assay: as above; conditions: source organism: Zaire ebolavirus
HLA-B*15:17 = assay: IEDB peptide-MHC binding, purified MHC/competitive/fluorescence; filed as Kd, often an IC50 or EC50 that approximates it; ≥ and ≤ were set here for values at or beyond the usual limits of such assays; conditions: source organism: Zaire ebolavirus
HLA-A*31:01 [21] = assay: as above; conditions: source organism: Zaire ebolavirus
HLA-A*69:01 [22] = assay: as above; conditions: source organism: Zaire ebolavirus
HLA-B*07:02 [23] = assay: IEDB peptide-MHC binding, purified MHC/competitive/fluorescence; ≥ and ≤ were set here for values at or beyond the usual limits of such assays; conditions: source organism: Zaire ebolavirus
HLA-B*08:01 [24] = assay: as above; conditions: source organism: Zaire ebolavirus
HLA-B*15:01 [25] = assay: as above; conditions: source organism: Zaire ebolavirus
[26] = source organism: Giardia intestinalis ATCC 50581
[27] = source organism: Brucella abortus
[28] = source organism: Zaire ebolavirus
[29] = source organism: Ebola virus - Eckron (Zaire, 1976)

Sequence: FLLMLCLHH
IC50 (HLA-A*02:01 [1]): 12.2 µM | IC50 (HLA-A*03:01 [2]): ≥ 129 µM

Sequence: FYWPVMNHK
IC50 (HLA-A*24:02): 9.75 µM | IC50 (HLA-A*03:01 [2]): 4.71 µM | IC50 (HLA-A*11:01 [3]): 4.52 µM

Sequence: GLYLYRFHV
Kd (HLA-A*02:01 [4]; [26]): 0.0014 µM | Kd (HLA-A*24:03 [5]; [26]): ≥ 20 µM | Kd (HLA-A*02:12 [6]): 0.0055 µM | Kd (HLA-B*18:01; [26]): ≥ 20 µM | Kd (HLA-B*46:01; [26]): ≥ 20 µM | Kd (HLA-B*51:01; [26]): ≥ 20 µM | Kd (HLA-A*03:01 [7]): ≥ 20 µM | Kd (HLA-A*26:01 [8]; [26]): ≥ 20 µM | Kd (HLA-B*15:01 [9]; [26]): ≥ 20 µM | Kd (HLA-B*57:01; [26]): ≥ 20 µM | Kd (HLA-B*39:01; [26]): ≥ 20 µM | Kd (HLA-B*27:03; [26]): ≥ 20 µM

Sequence: GYSFSIPGY
Kd (HLA-A*02:01 [10]): ≥ 20 µM | Kd (HLA-A*24:03 [11]; source organism: Brucella melitensis): 1.07 µM | Kd (HLA-A*31:01 [12]): ≥ 20 µM | Kd (HLA-B*58:01): ≥ 20 µM | Kd (HLA-B*44:02): ≥ 20 µM | Kd (HLA-A*69:01 [13]): ≥ 20 µM | Kd (HLA-B*27:05): ≥ 20 µM | Kd (HLA-A*03:01 [14]; [27]): ≥ 20 µM | Kd (HLA-B*40:01): ≥ 20 µM | Kd (HLA-B*07:02 [15]; [27]): ≥ 20 µM | Kd (HLA-A*11:01 [16]): ≥ 20 µM | Kd (HLA-B*08:01 [17]; [27]): ≥ 20 µM | Kd (HLA-A*26:01 [18]; [27]): ≥ 20 µM | Kd (HLA-B*15:01 [19]): 0.548 µM | Kd (HLA-B*35:01): 0.468 µM

Kd (HLA-A*24:03 [5]; source organism: Escherichia coli 536): ≤ 0.001 µM
Sequence: LYIEFTDNM

Sequence: RVPTVFHKK
Kd (HLA-A*02:19): ≥ 20 µM | Kd (HLA-A*24:03 [11]; [28]): ≥ 20 µM | Kd (HLA-A*02:12 [20]): ≥ 20 µM | Kd (HLA-A*02:16): ≥ 20 µM | Kd (HLA-A*02:11): ≥ 20 µM | Kd (HLA-A*02:03): ≥ 20 µM | Kd (HLA-A*03:01 [14]; source organism: Sudan ebolavirus - Uganda (2000)): 0.241 µM | Kd (HLA-A*29:02): ≥ 20 µM | Kd (HLA-A*68:02): ≥ 20 µM | Kd (HLA-A*02:01 [4]; [28]): ≥ 20 µM | Kd (HLA-B*18:01; [28]): ≥ 20 µM | Kd (HLA-B*46:01; [28]): ≥ 20 µM | Kd (HLA-B*15:17): ≥ 20 µM | Kd (HLA-A*31:01 [21]): 0.0268 µM | Kd (HLA-A*69:01 [22]): ≥ 20 µM | Kd (HLA-B*51:01; [28]): ≥ 20 µM | Kd (HLA-A*26:01 [8]; [28]): ≥ 20 µM | Kd (HLA-B*15:01 [9]; [28]): ≥ 20 µM | Kd (HLA-B*57:01; [28]): ≥ 20 µM | Kd (HLA-B*39:01; [28]): ≥ 20 µM | Kd (HLA-B*27:03; [28]): ≥ 20 µM

Sequence: TVIYRGTTF
Kd (HLA-A*02:19): ≥ 20 µM | Kd (HLA-A*24:03 [11]; [28]): ≥ 20 µM | Kd (HLA-A*02:12 [20]): ≥ 20 µM | Kd (HLA-A*02:16): ≥ 20 µM | Kd (HLA-A*02:11): ≥ 20 µM | Kd (HLA-A*02:03): ≥ 20 µM | Kd (HLA-A*03:01 [14]; [28]): ≥ 20 µM | Kd (HLA-A*29:02): ≥ 20 µM | Kd (HLA-A*26:01 [18]; [28]): 0.838 µM | Kd (HLA-A*68:02): ≥ 20 µM | IC50 (HLA-A*24:02): 1.26 µM | IC50 (HLA-B*07:02 [23]): 14.3 µM | IC50 (HLA-B*08:01 [24]): 45.4 µM | IC50 (HLA-B*15:01 [25]): 4.71 µM | Kd (HLA-A*02:01 [4]; [28]): ≥ 20 µM | Kd (HLA-B*18:01; [28]): ≥ 20 µM | Kd (HLA-B*46:01; [28]): ≥ 20 µM | Kd (HLA-A*69:01 [22]): ≥ 20 µM | Kd (HLA-B*51:01; [28]): ≥ 20 µM | Kd (HLA-B*15:01 [9]; [28]): 0.0533 µM | Kd (HLA-B*57:01; [28]): ≥ 20 µM | Kd (HLA-B*39:01; [28]): ≥ 20 µM | Kd (HLA-B*27:03; [28]): ≥ 20 µM

Sequence: VVRVRRELL
Kd (HLA-A*02:19): ≥ 20 µM | Kd (HLA-A*24:03 [11]; [28]): ≥ 20 µM | Kd (HLA-A*02:12 [20]): ≥ 20 µM | Kd (HLA-A*02:16): ≥ 20 µM | Kd (HLA-A*02:11): ≥ 20 µM | Kd (HLA-A*02:03): ≥ 20 µM | Kd (HLA-A*03:01 [14]; [28]): ≥ 20 µM | Kd (HLA-B*07:02 [15]; [29]): 8 µM | Kd (HLA-B*08:01 [17]; [29]): 6 µM | Kd (HLA-A*68:02): ≥ 20 µM | Kd (HLA-A*02:01 [4]; [28]): ≥ 20 µM | Kd (HLA-B*18:01; [28]): ≥ 20 µM | Kd (HLA-B*46:01; [28]): ≥ 20 µM | Kd (HLA-A*69:01 [22]): ≥ 20 µM | Kd (HLA-B*51:01; [28]): ≥ 20 µM | Kd (HLA-A*26:01 [8]; [28]): ≥ 20 µM | Kd (HLA-B*57:01; [28]): ≥ 20 µM | Kd (HLA-B*39:01; [28]): ≥ 20 µM | Kd (HLA-B*27:03; [28]): ≥ 20 µM

Sequence: VYRDHSEKK
IC50 (HLA-A*24:02): 29.2 µM | IC50 (HLA-A*03:01 [2]): 25.3 µM | IC50 (HLA-A*11:01 [3]): 33.2 µM
